According to a protein production outcome set (Wang et al. 2014):

Experiment: label from the status in PepcDB records
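Note: failed if final PepcDB status was selected cloned or expressed and not failed if soluble or beyond.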

Sequence	protein production
MQAAVTVTPARLPELLLGLATVRPVFLWGAPGIGKSSLVRNFADSLGLECVSLLGTQLAPEDLIGVPQIRDGRSVFCPPESIARDEPYCLFLDELNAATPDVQKAFYSLILDRRIGNYELPKGSLVIGAGNRATDNALARPIASALVNRLTHVHLDASAKDWLVWAGENGIHPWITDHLTDRPDHLWSKPPKTEEPFSTPRSWHMLSDALHSFGQDLDEETLKVLAHGTLTPAHATAFCGYVKIVRSRFGIEAILKGEARWPSRIEDRDLLYYLAESFRGRLVKELPASKEHMSANGRQTAYRAKSLLVQLAEISVEVAQSVIASDADGNPLLPAWFLVEAARDMPRLVEARRLEHHHHHH	failed
MQAEGKRKKGDLLIILVVLIIGVGAAVPWLWNQLNPGGGNGEHERIAVITRDGKEVARINLDKVTEPQHFHYEGGIALTIVAENGKIRFLESQCPDQICVKTGSLSKPGDFAACLPAGTIVTIEGDEYE	failed
MQAILLNFCFDFMCNYVIMSNKHFYRLGGFIMSFKIITISREFGSGGRFIGEQIAQKCGIEFYDKKIIEHVAKELGISEQIVANQGEYAPAGNIFSYAFVGRDITGVSLSDQIFNIQQKLIKDIAQKEPCVIVGRCADYILSDRDDVLNVFIEGNKPEKAARIKKLYQKSDDEVKKLLKDVDKKRSVNYRYFTDKEWGNRKNYDLVLNSSVLGYDKCIELITAAYA	failed
MQASSNGTTHTKRVRIRPFQKGIRRKRKDLMTEAENRCRLVLIVPDIADADEQARIVADALKGGDVASVIVPQYGLDDGAFQKHAEKLVPVIQDAGAAALIAGDSRVAGRAKADGLHITGNAQALSEAIDKHAPKLIVGGGNASDRHNALEIGEVRPDYIFFGKLDGDIKPEAHPKNLALGEWWASMIEIPCIVMAGTDPASALAVAETRAEFVALRLAVFGEPGRAPSIVAEINALLDEKAPRFED	failed
MQDEYDAADLSLGVSDVTLVGEVLDTEAVRTFDRDDGSEGRVSNLVVGDETGRVRVTLWDDQADTATDLDAGAVVEIVDGYVREREGSLELHVGDTGAVTPVPDADVSFVPLEHHHHHH	not failed
MQDKYGVNHDHYCYESSDVLINLLNIRDPDELTQAEADFNLIRYSEYCSDLDELEDFDSNHFLNLHWVLFQDIYEWAGTIRDVDISKANTRFCTCSRVEPELNKAISRIPLIRFCRNKHELVALVADIFSDLNVVHPFREGNGRTTRFFFEELLHVAGYRIEWPVITKEEWVDANIHGYFGQLHKLEVIFDAAIIESLEHHHHHH	failed
MQEAPNTPTRPQAPPSAHLESPQPARTQQQSIQQMTPQSTTSSNNFLKDGAAGAVLEDQDIEEVLKALKTFDGGHVNPDTICEFFDEVWEEAAPAAPLPPAPPENVVDVPGAKPSCSGILVSGSNISQPNVIIKQEQRPWQESHAELEQQQHVISRRIEFLLRRMRKLQARAMCRHASEEVVGIMEWSARSSHKAPV	failed
MQEEWNPLMKNRCIIWLVTGICLTVIFQFPLKSVASSADKYANFAELAEHETEGEDYQIEYTDMGTELLILSPHGGGIEGGVSELVRAFSADYSTYLFEGIKPSQNWDLHITSNHFDEPQALKAVKEHSYVLAFHGYHDIVEHTLVGGTDTGGAKAIVRALLNKGFSAELVSPSHRLAGGNPENINNQCKTGQSIQLEISTPQREAFFSEFGLWTRASSKNETFQAYVSAVKEVLETRYK	failed
MQEKGNISIHTENIFPIIKKFLYSDHEIFLRELVSNAVDATQKLKRLAALGEYPGELGDTKVTVSVNKEAGTITITDRGIGMTAEEIKKYINQIAFSGATEFIEKYKDKTDTNQIIGHFGLGFYSAFMVSSNVEINTLSYQPNSKAAHWICDGSTEFEIKLSDKAERGSEITLHIAEDSLEFLETSRIHSILDKYCRFLPVEIEFEGEIINNPSPLWTKQPSELKDEDYIAFYKELYPMSEDPLFWIHLNVDYPFSLTGVLYFPKLKKDFEFQRNKIQLYSRQVFITDEVKDIVPEFLMLLHGVIDSPDIPLNVSRSFLQADGNVKKINSHITKKVADKLNELFNNDRAGFEAKWDDIGMFVKYGMISEEKFYDKAKNFCLLKNTDNALSTIEEYEQKIKPIQTDKNDKLVYLYSNNAVAQDIFIQAAKKKQYDVLLLDSVIDSHFLGQLESKLEKVQFKRIDSESVDKLIEKDEPKLSLLTKEQETQAEELFKKVVNNGKVIIKLEHLATDDMPVTIVISEFMRRMKDMAATSGQSMFGGFELTHEVVVNTNHPLIAKAIAAPEAEGEQLIKQTYQLGLLSQGLLQGAELSAFIERNMNALVK	failed
MQEKYNFGKVSSQHKNYSKIETMLRPKGFDKLDHYFRTELDIDLTDETIELLLNSVKAAFGKLFYGAEQRARWNGRDFIALADLNITKALEEHIKNFQKIEQDMGVDELLEYIAFIPPVEMNVGEDLKSEYRNIMGGLLLMHADVIKKATGERKPSREAMEFVAQIVDKVF	not failed
MQELLFIRLNELILLIYLFSIACYFFDFIKRFYKIRNIGFVTLGIVWVLQTISLSFYVTATNQVPLGNVFDVLFALAWLIISISIVISVIKQVNISIFLFNIIGFVFIAISTFQPMHYQGAGEKLNVINELLIVHVTFAIISYAIFAFAFVNSILYLIQFKNLKQKRFTQKYFRISSVATLEKVVFYNSLVGFLFIILSIILGAQWGINTIGMDIFVDPKVIMSVIITILYGLYLLLRVRQSISKHKLIYINIILFCLNMINLLFTSHVSDFHQWTGI	failed
MQENHLIDIARWSERPGPRGIPSICSAHPLVIEAAMLRAHREKAPVLIEATCNQVNQDGGYTGMTPEDFTRFVGAIADRIEFPREKILLGGDHLGPNPWKHLPADEAMAKAEAMITAYAKAGFTKLHLDTSMGCAGEPTALPDATTAARAARLAAVAEDAVGGRGGVLPVYIIGTEVPIPGGALEELDTLEVTAPEAAIETVRVHRAAFEEAGAAGAFSRVVGAVVQPGVEFGNENVIAYDRARAEKLSATLGQLHGMVFEAHSTDYQTPDALRELVADGFAILKVGPGLTFALREALYGLDQIAAFLFPAARERTLAEVTEAVMREEPANWAKYYHGSAEEQRLQRHFSYSDRIRYYWPHPKAAAAVDELMSLLDGVAIPETLISQFLAGSYARVRNGEVAPQAKPLALAAVDAVLQDYFAACRV	not failed
MQEYIEFFKAHTLLSLAWVGLFVMLVVSVIKSSFSKIKNVTHQELTIMVNRQDAKVVDVRSNDDFRKGHIVGAVNVTLADIKNNQVSALEKFKGSPIILVCNAGMTSSQAAQLLSKQGFENLYNLKGGMGEWQAANMPVSKSKR	failed
MQFFDGYHYHGTTFEQSYRCYPASFIDKPQLESGDKIIMPPSALDRLASLHIDYPMLFELRNAGIERVTHCGVLEFIAEEGMIYMPYWMMQNLLLQEGDIVRVRNVTLPKGTYVKLQPHTTDFLDISNPKAILETALRNYSCLTSGDSIMVPYNNKKYFIDIVETKPANAISIIETDCEVDFAPPLDYKEPERPTAPSAAKGPAKAEEVVDEPEPKFNPFTGSGRRLDGRPLAYEPAPASSSKGKQPVVANGNGQSSVASSSEKATRAQGKLVFGANGNRAPKEAAPKVGAAKETKKEEQEKKDEPKFQAFSGKKYSLRG	not failed
MQFIEKIGIVLATYNPNLEYFEKQIQSIKQQSWKNWVCHIVDDCSHSEYQVGIKNIIDNDPRFICHFHSHNLNHYYNFERGLKYCAQDKSITAISLADQDDIWHDDKLKILLKKLRSQKAVLIHSDLELINSYDQTIHPSAWDFEGRKPHKLSHDLLLLRNVVTGCSVLFCTSLLTDVLPFPPQNKISWYHDWWIALVASHRGKIVHIHKPLVWYRIHNANNVGVLKDSGKIHCELLLLCRKKFKINGNSYLVHRDFSKAFYRRFKRELNELGYTNPFDDRKLDFGWHILKLLYKSLLVGYNSEGAALRIGVLKLIFDIQRSYRIILYHCLKTFKSYYKNSQ	failed
MQFIWAALGLVCVALALIGVALPLLPTVPFLLLAAFFFARSSERLHTWLVTHRLFGPMILDWQQSGAIRPGAKKAATLSIAAVFGLSLVFAVPSHVLLIQAVVLSGVLIFIWTRPNG	failed
MQFKAEARRNKLMGLWVAEVLGKSGDEANAYAAEVVKADFEEAGHEDVMRKVLGDLDGKRPEAEVRAKYEGLMAVAKAQLMDEL	not failed
MQFKIIKAQELEKQQREKIAELCFAAFEEDPWSQYAFMQNAFHIIGLLGEDIVSHALWTDRVFTLNNHVTLKTAYIEYVTTDSTMRGRGLASKLLMYLINILTTKKYELAALQPEVEAFYRKLGWVSWGGNLYIKHNISIYKTDGIEVMLYPLSGGLKDQIVCSLKNDKICTDWREGELW	failed
MQFTDFSLDQRLLQSLKHMGIATPTAIQEQALPIALAGKDLMASSKTGSGKTLAFLLPALQRVISTRALSKRDPRVLILLPTRELAHQVYSQLRLLVANTQYKAISVLGGENFNDQAKALAKEPHFIVATPGRIADHLEQKNLFLNGLELLILDEADRMLDLGFAPQLKAINEAADHKRRQTLMFSATLDHSEINEIAAALLKNPLHVAIGTAHAEHQDISQRIYLCDHLDHKEALLSRLLSDESHKQVIIFTATRADTERLAAKLSAQGFATAALSGELKQAARNQIMDQFARGQQQILVTTDVASRGLDLLNVSLVINFDMPKFAEEYVHRIGRTGRAGAKGDAISLVGPKDWDSFKKVQLFLRKTFEISVIKGLEAKFTGLKDKPKSVATKGVVKANTKGKSKPKPNVVKAAPSRDKRFITGVDVGDAPMRKKPKAQLLQESDDEI	failed
MQHESPIIRRKSTRIYVGDVPIGDGAPIAVQSMTNTRTTDVEATVAQIRALEKVGADIVRVSVPTMEAAEAFKLIKQQVSVPLVADIHFDYRIALKVAEYGVDCLRINPGNIGNEERIRSVVDCARDKNIPIRIGVNGGSLEKDLQMKYGEPTPEALVESAMRHVDHLDRLNFDQFKVSVKASDVFLAVDSYRLLAKKIDQPLHLGITEAGGARAGAVKSAVGLGMLLSEGIGDTLRISLAADPVEEIKVGFDILKSLRIRSRGINFIACPSCSRQEFDVIGTVNALEQRLEDIITPMDVSIIGCVVNGPGEAEVSHLGLAGSNKKSAFYEDGKRQKERFDNNDLVNQLEAKIRAKASMMDSENRIEIKVQD	failed
MQHFKTKIEHFQIYIYFSAIILGILIGTNFPGISSILETLVAICIAILMFSMFSQIPFFELQKRVLNLKFVTALIIANFVILPILVYFLISIFNISSSAILIGLFLVLLTPCIDYVIVFTALGKGNAQYMLISTPILFVLQILLLPLYLTMFLDKSILTIIDIEPFIHSFFTFIIIPLLLALTLQLLSKKYYVMSQTLKATSWLPELFMSLVLFTVVGSQINKIANDLSVVVKVAPIYIIFMLIAPFIGYFTGKLFHLKPSILRTLAFSTSTRNALVVLPLALSLPDQWVTITTTVIITQTLIELIGELFYIKMIPSLIKS	failed
MQICDSYNQKNSLFNAMNRFIGAVNNMDQTVMVPSLLRDVPLDQEEEKEVTSFQDGDMYGSYVLLKSIRNDIEWGVLQAEERRKEKHGVTTTSLEVSRIEPNDKDLEKLFHYHLSGLHTVLAKLTRKANTLTNRYKQEIGIGGCGN	failed
